Assay results from the supplement of paper PMC9233669.
Variants at the floor of the assay were thinned out.

Legend:
biotinyl-Phe-oxazolone = assay: self-aminoacylation, catalytic enhancement (BFO) (fold over background); higher = more active; k-Seq, kA / k0A0; sequences stand for … in GGGAAUGGAUCCACAUCUACGAAUUC…UUCACUGCAGACUUGACGAAGCUG
How it was run: (§1)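 Catalytic enhancement equals the median kA over the uncatalyzed rate, the latter read from the low-activity peak of a bimodal Gaussian fit. Values of kA came from fitting each sequence's fraction reacted to a pseudo-first-order model, with 1000 bootstraps. Reacted RNA was captured with streptavidin and quantified by triplicate qPCR and Illumina sequencing after 90 minutes at room temperature with 2–1250 μM biotinyl-aminoacyl-oxazolone and 0.43 μM mutagenized RNA pools bearing a 21-nt variable region.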

biotinyl-Trp-oxazolone = assay: self-aminoacylation, catalytic enhancement (BWO) (fold over background); higher = more active; k-Seq, kA / k0A0; sequences stand for … in GGGAAUGGAUCCACAUCUACGAAUUC…UUCACUGCAGACUUGACGAAGCUG
How it was run: as §1

biotinyl-Ile-oxazolone = assay: self-aminoacylation, catalytic enhancement (BIO) (fold over background); higher = more active; k-Seq, kA / k0A0; sequences stand for … in GGGAAUGGAUCCACAUCUACGAAUUC…UUCACUGCAGACUUGACGAAGCUG
How it was run: as §1

biotinyl-Val-oxazolone = assay: self-aminoacylation, catalytic enhancement (BVO) (fold over background); higher = more active; k-Seq, kA / k0A0; sequences stand for … in GGGAAUGGAUCCACAUCUACGAAUUC…UUCACUGCAGACUUGACGAAGCUG
How it was run: as §1

biotinyl-Leu-oxazolone = assay: self-aminoacylation, catalytic enhancement (BLO) (fold over background); higher = more active; k-Seq, kA / k0A0; sequences stand for … in GGGAAUGGAUCCACAUCUACGAAUUC…UUCACUGCAGACUUGACGAAGCUG
How it was run: as §1

biotinyl-Met-oxazolone = assay: self-aminoacylation, catalytic enhancement (BMO) (fold over background); higher = more active; k-Seq, kA / k0A0; sequences stand for … in GGGAAUGGAUCCACAUCUACGAAUUC…UUCACUGCAGACUUGACGAAGCUG
How it was run: as §1

| Sequence | self-aminoacylation (biotinyl-Phe-oxazolone) | self-aminoacylation (biotinyl-Trp-oxazolone) | self-aminoacylation (biotinyl-Ile-oxazolone) | self-aminoacylation (biotinyl-Val-oxazolone) | self-aminoacylation (biotinyl-Leu-oxazolone) | self-aminoacylation (biotinyl-Met-oxazolone) |
| --- | --- | --- | --- | --- | --- | --- |
| UAGUUUGCUGAUAGUCGCAAG [Fam3.1 aminoacylation ribozyme variant] | 2.35 | 1.61 | 1.61 | 1.47 | 1.08 | 0.993 |
| AUUACCCUGGUUAUCGAGUAA [Fam2.1 aminoacylation ribozyme variant] | 1.44 | 1.89 | 1.31 | 1.24 | 1.32 | 1.44 |
| AUCCACCUAGGCCAUCGGGUG [Fam2.2 aminoacylation ribozyme variant] | 27.4 | 6.22 | 3.55 | 4.12 | 5.49 | 3.46 |
| AUUACCCUGGUCAGAGAGUGA [Fam2.1 aminoacylation ribozyme variant] | 19.9 | 8.25 | 3.18 | 3.41 | 6.71 | 7.04 |
| CCCCUUCAAACAAUCGGUCUG [Fam1A.1 aminoacylation ribozyme variant] | 185 | 72.5 | 1.79 | 2.44 | 3.29 | 2.05 |
| AUUAUCCUGGUCAUCGACUGA [Fam2.1 aminoacylation ribozyme variant] | 0.418 | 0.498 | 0.875 | 0.785 | 0.941 | 0.65 |
| AUUCUACUAGGUCAUCGGGUG [Fam2.2 aminoacylation ribozyme variant] | 41.7 | 5.93 | 3.7 | 3.87 | 7.31 | 5.82 |
| CCUCAGUUCAAGCAAUCGGUC [Fam1B.1 aminoacylation ribozyme variant] | 5.46 | 3.37 | 1.12 | 1.03 | 1.36 | 1.17 |
| AAGUUAGCUAAUAGUCUCAAG [Fam3.1 aminoacylation ribozyme variant] | 2.11 | 1.69 | 1.26 | 1.27 | 0.902 | 1.22 |
| CUACUUCAAGCCAUCGGUCUG [Fam1A.1 aminoacylation ribozyme variant] | 0.772 | 0.696 | 0.89 | 1.04 | 1.15 | 0.729 |
| AAGUAUGCUCAUAGUCGCAAG [Fam3.1 aminoacylation ribozyme variant] | 4.07 | 2.78 | 1.83 | 1.3 | 1.3 | 1.5 |
| AUUCACCUAGGUCAUCGGAUA [Fam2.2 aminoacylation ribozyme variant] | 0.865 | 0.615 | 0.894 | 1.2 | 0.877 | 0.754 |
| AUUCACCUCGGUCAUCGCGUG [Fam2.2 aminoacylation ribozyme variant] | 109 | 12.9 | 6.77 | 7.67 | 16 | 11.4 |
| CCUCACUUCGAGCAAUCGGUC [Fam1B.1 aminoacylation ribozyme variant] | 2.23 | 1.16 | 1.08 | 1.04 | 1.04 | 0.881 |
| AUGUUUACUAAUAGUCGCAAG [Fam3.1 aminoacylation ribozyme variant] | 1.92 | 2.07 | 1.67 | 1.7 | 1.52 | 1.61 |
| CUACUUCAAACGAUCAGUCUG [Fam1A.1 aminoacylation ribozyme variant] | 1.22 | 0.734 | 0.633 | 0.751 | 0.549 | 0.593 |
| AUUACUCUCGUCAUCGAGUGA [Fam2.1 aminoacylation ribozyme variant] | 8.87 | 4.11 | 2.11 | 2.09 | 3.39 | 2.92 |
| AUUACCCUGGUCAUCGAGUUU [Fam2.1 aminoacylation ribozyme variant] | 14.8 | 6.31 | 3.52 | 4.61 | 7.87 | 7.8 |
| AUUCUCCUAUGUCAUCGGGUG [Fam2.2 aminoacylation ribozyme variant] | 65.9 | 8.54 | 5.5 | 5.62 | 11.6 | 9.01 |
| CAGUUUGCAAAUAGUCGCAAG [Fam3.1 aminoacylation ribozyme variant] | 2.37 | 2.02 | 1.72 | 1.52 | 2.03 | 1.65 |
| CCACACUUCAAGGAAUAGGUC [Fam1B.1 aminoacylation ribozyme variant] | 0.627 | 0.5 | 0.526 | 0.514 | 0.478 | 0.489 |
| CCACACUUCAAGUGAUCGGUC [Fam1B.1 aminoacylation ribozyme variant] | 1.72 | 1.24 | 1.04 | 1.06 | 0.951 | 1.1 |
| AUUCAUCUAGGUCAUCCGGUG [Fam2.2 aminoacylation ribozyme variant] | 48.9 | 6.87 | 4.53 | 4.65 | 8.6 | 6.61 |
| AAGUUCGAUAAUAGUCGCAAG [Fam3.1 aminoacylation ribozyme variant] | 2.51 | 1.33 | 1.44 | 1.28 | 1.55 | 1.39 |
| CCACACUUCAAGCGAUAGGUC [Fam1B.1 aminoacylation ribozyme variant] | 0.743 | 0.453 | 0.605 | 0.642 | 0.543 | 0.471 |
